# Molecular target: epidermal growth factor receptor variant III (EGFRvIII) on U87EGFRvIII cells (UniProt P00533)
# Assay: cell-based or functional assay
substance,measurement,value
2173 CD28zeta CAR (EGFRvIII specific CAR) on transduced primary human T cells,"% cytolysis (killing) of U87 VIII GFP target cells, xCELLigence eSight impedance",100%
same,"Human IFN-gamma release from CAR T cells co-cultured with U87 VIII GFP target cells (sandwich ELISA, E:T 10:3)",4750

# Reference: patent US20240368304A1
